Reference: patent US20240174736A1 (STARMAB BIOLOGICS SUZHOU, published 2024)

B1: humanized antibody 2E5H3L0 (antibody, human IgG1, kappa, V domains shown)
VH: EVQLVESGGGLVQPGGSLKLSCAASGYTFGDNWMNWVRQASGKGLEWVGEIRLKSNNYATRYAESVKGRFTISRDDSKNTVYLQMNSLKTEDTAVYYCTRTQFITSVVAPFDFWGQGTTVTVSS
VL: not shown
notes: also called 2E5H3L0 humanized antibody; hu2E5VH3CH/hu2E5VL0CL
B2: 2E5 mouse/human chimeric antibody (2E5HL) (antibody, human IgG1, kappa, V domains shown)
VH: EVKVEESGGGSVQPGGSMKLSCVASGYTFGDNWMNWVRQSPEKGLEWVAEIRLKSNNYATRYAESVKGRFTISRDDSKSSVYLQMNNLRTEDTGIYYCTRTQFITSVVAPFDFWGQGTTLTVSS
VL: not shown
notes: also called 2E5HL human-mouse chimeric antibody; c2E5VHCH/c2E5VLCL

Columns and labels:
[1] = target: pneumolysin (PLY) recombinant protein (Streptococcus pneumoniae, UniProt Q04IN8 1-471)
[2] = target: T1, attenuated PLY mut recombinant protein (pneumolysin with alanine 146 deleted) (Streptococcus pneumoniae, UniProt Q04IN8 1-471); assay: ELISA, PLYmut coated at 0.1 µg/well, antibody in 2-fold dilutions, HRP goat anti-human IgG
T1 construct: The change is a deletion of A146, not a substitution ('-' under new means deleted); Expressed in E. coli BL21 (DE3) plysS with a C-terminal His tag; also called PLYmut protein; PLY mut antigen; not shown: C-terminal His tag

Binder	EC50 [1] [µg/mL]	EC50 [2] [µg/mL]
B1	0.0203	0.0162
B2	0.0171	0.0158
